Results on two proteins are retold here after PMC3413214, “Structural and biochemical characterization of a trapped coenzyme A adduct of Caenorhabditis elegans glucosamine-6-phosphate N-acetyltransferase 1” (Acta Crystallographica Section D: Biological Crystallography, 2012).

Substrate in the data set: CC(=O)SCCNC(=O)CCNC(=O)[C@H](O)C(C)(C)COP(=O)(O)OP(=O)(O)OC[C@H]1O[C@@H](n2cnc3c(N)ncnc32)[C@H](O)[C@@H]1OP(=O)(O)O
In words: purified protein. As to conditions: GlcN-6P constant, 25 mM Tris-HCl pH 7.5, 250 mM NaCl, 2 mM EDTA, 5% glycerol, 293 K, 20.0 °C. It is filed as biochemical, Caenorhabditis elegans.

B1: CeGNA1 (Caenorhabditis elegans) (protein)
chain: MSHIFDASVLAPHIPSNLPDNFKVRPLAKDDFSKGYVDLLSQLTSVGNLDQEAFEKRFEAMRTSVPNYHIVVIEDSNSQKVVASASLVVEMKFIHGAGSRGRVEDVVVDTEMRRQKLGAVLLKTLVSLGKSLGVYKISLECVPELLPFYSQFGFQDDCNFMTQRF
notes: full-length, 165 residues; GST fusion from pGEX-6P-1 in E. coli BL21(DE3) pLysS, GST cut with PreScission protease; homodimer; 18 876 Da by MALDI
What is called Km is the concentration of substrate that gives half-maximal velocity. For orientation: kcat means the maximal rate divided by the concentration of active sites. Usually kcat/Km stands for the second-order rate constant that governs catalysis at low substrate concentration. B1: under “3 nM enzyme”, the Michaelis constant (Km) is 192 ± 16 µM, the kcat came out at 252 s⁻¹ and the kcat/Km came to 1.3e+06 M⁻¹ s⁻¹.

B2: CeGNA1 (Caenorhabditis elegans; C141S) (protein)
chain: MSHIFDASVLAPHIPSNLPDNFKVRPLAKDDFSKGYVDLLSQLTSVGNLDQEAFEKRFEAMRTSVPNYHIVVIEDSNSQKVVASASLVVEMKFIHGAGSRGRVEDVVVDTEMRRQKLGAVLLKTLVSLGKSLGVYKISLESVPELLPFYSQFGFQDDCNFMTQRF
notes: as for B1
With B2, for the setting “10 nM enzyme”, the Km is listed as 261 ± 33 µM, the kcat amounted to 48 s⁻¹ and the catalytic efficiency (kcat/Km) is 200000 M⁻¹ s⁻¹.
